Assay results reported in patent publication US6333311.

Legend:
[1] = biological target: Jurkat cell 105 kD lactoferrin receptor (human); assay: Scatchard analysis, 125I-labelled protein on whole Jurkat cells
[2] = biological target: Jurkat cell 105 kD lactoferrin receptor (human); assay: Scatchard analysis, Jurkat cells cultured 24 h with 30 mM sodium chlorate
[3] = biological target: HT-29 cells (human colon carcinoma cell line); assay: Scatchard analysis, 125I-labelled lactoferrin on HT-29 cells; High affinity (nM)
[4] = biological target: Jurkat cell 105 kD lactoferrin receptor (human); assay: Scatchard analysis, 125I-labelled protein on whole Jurkat cells (species comparison)
human lysozyme (human) [5] = biological target: human lysozyme (human) (UniProt P61626); assay: solid-phase ligand binding ELISA on hLZ-coated plates; percent of the response with natural hLF
human lysozyme (human) [6] = biological target: human lysozyme (human) (UniProt P61626); assay: solid-phase ligand binding ELISA on hLZ-coated plates
[7] = biological target: HT-29 cells (human colon carcinoma cell line); assay: Scatchard analysis, 125I-labelled lactoferrin on HT-29 cells; column Total affinity (µM); high affinity binding lost (--)
[8] = biological target: Jurkat cell 105 kD lactoferrin receptor (human); assay: Scatchard analysis, 125I-hLf on Jurkat cells cultured without sodium chlorate
[9] = biological target: Jurkat cell 105 kD lactoferrin receptor (human); assay: Scatchard analysis, 125I-hLf on Jurkat cells cultured 24 h with 30 mM sodium chlorate
[10] = biological target: HT-29 cells (human colon carcinoma cell line); assay: Scatchard analysis, 125I-labelled lactoferrin on HT-29 cells; High affinity (nM); the cell wraps into r15 (8^a))
[11] = biological target: HT-29 cells (human colon carcinoma cell line); assay: Scatchard analysis, 125I-labelled lactoferrin on HT-29 cells; column Total affinity (µM); high affinity binding lost (--); one experiment

Sequence of bovine lactoferrin (P24627 20-708 limits assumed): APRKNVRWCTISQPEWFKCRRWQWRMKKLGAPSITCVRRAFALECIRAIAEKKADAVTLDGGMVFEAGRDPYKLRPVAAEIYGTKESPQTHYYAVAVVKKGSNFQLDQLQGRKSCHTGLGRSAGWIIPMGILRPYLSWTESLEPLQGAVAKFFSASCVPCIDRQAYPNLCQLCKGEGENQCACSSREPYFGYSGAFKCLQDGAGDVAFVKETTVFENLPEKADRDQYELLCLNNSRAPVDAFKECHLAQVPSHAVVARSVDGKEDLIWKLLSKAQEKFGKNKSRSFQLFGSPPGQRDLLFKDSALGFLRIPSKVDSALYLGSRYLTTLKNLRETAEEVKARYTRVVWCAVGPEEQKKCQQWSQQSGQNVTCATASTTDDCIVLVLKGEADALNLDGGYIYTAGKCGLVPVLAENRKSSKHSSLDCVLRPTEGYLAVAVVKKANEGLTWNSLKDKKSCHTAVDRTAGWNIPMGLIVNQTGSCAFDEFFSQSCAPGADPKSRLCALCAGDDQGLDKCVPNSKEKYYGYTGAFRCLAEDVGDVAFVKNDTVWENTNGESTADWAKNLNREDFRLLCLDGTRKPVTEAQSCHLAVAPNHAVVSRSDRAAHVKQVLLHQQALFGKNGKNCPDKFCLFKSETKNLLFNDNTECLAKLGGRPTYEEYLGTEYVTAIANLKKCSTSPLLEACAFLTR

Row | Substance | Kd [1] [µM] | Kd [3] [µM] | Kd [4] [µM] | also measured
1 | rhLF^-5N (ligand) | 0.0124 |  |  | Kd [2]: 0.0279 µM
2 | hLF^-3N (from UniProt P02788) (ligand) | 0.057 |  |  | Reactivity (%) (human lysozyme (human) [5]): 5.1%; Kd [2]: 0.0572 µM; fold lower affinity than N-terminally intact hLF (human lysozyme (human) [6]): 17 fold lower; Kd [7]: 1.7 µM
3 | natural human lactoferrin (from UniProt P02788) (ligand) | 0.069 | 0.074 | 0.06 | Kd [8]: 0.0711 µM; Kd [9]: 0.0626 µM
4 | hLF^-2N (from UniProt P02788) (ligand) | 0.065 |  |  | Reactivity (%) (human lysozyme (human) [5]): 37.5%; fold lower affinity than N-terminally intact hLF (human lysozyme (human) [6]): 3 fold lower; Kd [10]: 0.124 µM

Second part, led by results:

Row | Kd [1] [µM] | Kd [3] [µM] | Kd [4] [µM] | Substance | also measured
5 |  | 0.088 |  | transgenic hLF isolated from milk of a transgenic bovine (from UniProt P02788) (ligand) | 
6 |  | 0.066 |  | iron-saturated human lactoferrin (from UniProt P02788) (ligand) | 
7 |  | 0.081 | 0.06 | bovine lactoferrin (from UniProt P24627) (ligand) | 
8 | 0.081 |  |  | non-modified recombinant human lactoferrin (from UniProt P02788) (ligand) | 
9 |  |  | 0.031 | murine lactoferrin (from UniProt P08071) (ligand) | 
10 | 0.041 |  |  | hLF^-4N (from UniProt P02788) (ligand) | Kd [11]: 0.7 µM
